Laboratory results from the supplement of paper PMC10567573.
± gives the standard deviation.

Test: protein stability index of a GFP-peptide fusion (GPS, HEK-293T) (PSI 1-6); higher = more stable
[1] = treatment: DMSO, c terminus: a fixed tail appended
[2] = treatment: MLN4924 1 uM, 8 h, c terminus: a fixed tail appended
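Also: 24-mer peptide tiles fused after GFP, lentivirally expressed, FACS-sorted into six equal bins by GFP/DsRed ratio, decoded by Illumina sequencing, PSI is the read-weighted mean bin number.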

Sequence	protein stability index [1]	protein stability index [2]	protein stability index (treatment: DMSO, c terminus: native)	protein stability index (treatment: MLN4924 1 uM, 8 h, c terminus: native)
DSKSGGSGSESDHTTRSSLRGPRE [DVL3]	5.31 ± 0.27	5.19 ± 0.22	–	–
DSYCDALTRPEPVHEFCAGRECQP [ADAMTSL2]	4.86 ± 0.1	4.57 ± 0.29	–	–
DTCPEVGFFDVLGNDRRREWAALG [ACBD3]	3.09 ± 0.4	3.76 ± 0.14	–	–
DVKKLEEAGFHTVEAVAYAPKKEL [RAD51]	4.73 ± 0.2	4.91 ± 0.078	–	–
DVTSLSSQLPDTPNSMVPSPVET [ISL2]	–	–	4.24 ± 0.1	4.39 ± 0.34
DYCKGGYHPVKIGDLFNGRYHVIR [SRPK2]	1.99 ± 0.32	2.23 ± 0.25	–	–
DYLSGVLILASELSRLSVNSVTAG [TSN]	3.54 ± 0.61	2.68 ± 0.4	–	–
EADGSTNNGIFQINSRRWCSNLTP [SPACA3]	3.43 ± 0.33	3.66 ± 0.32	–	–
EAKNYLLLPQERPLMQGPRTRPRK [KLHL20]	4.25 ± 0.097	4.17 ± 0.058	–	–
EAMFCDFPKINHGILYDEEKYKPF [CFHR2]	2.49 ± 0.34	2.81 ± 0.26	–	–
EAVAGAEGREAPALVAAGGAPEDD [DENND6A]	5.63 ± 0.16	5.74 ± 0.12	–	–
EAYIAKQKRLKSKLLDHDNVKYLK [GDAP1]	3.15 ± 0.32	3.45 ± 0.55	–	–
ECGKAFSRSSILVQHQRVHTGEKP [ZNF24]	3.78 ± 0.3	3.96 ± 0.14	–	–
ECLPENLGGYVKIDLATWNFQFLP [PTPN9]	2.36 ± 0.33	2.21 ± 0.38	–	–
EDAVASADFSSMLSEEEKEELKAE [TPD52L1]	5.59 ± 0.3	5.54 ± 0.63	–	–
EDGMQCLQLKETLATQEPTDNQVR [DLC1]	5.35 ± 0.13	5.5 ± 0.092	–	–
EECKDRERPMYGRDSAYQSITHYR [EMD]	4.18 ± 0.43	4.13 ± 0.14	–	–
EEEEGTRSPTLEPPRGRSEAPDSL [SMG5]	5.44 ± 0.14	5.68 ± 0.25	–	–
EEGILVAVGQDCYTRIWSLHDARL [DCAF4]	2.26 ± 0.3	2.09 ± 0.31	–	–
EEQSDQSFSSLEPDNEQLMEEVIS [IQUB]	5.34 ± 0.27	5.61 ± 0.18	–	–
EETKKLANKYLVEDVLLLNFEEMR [KLHL14]	3.23 ± 0.23	3.18 ± 0.27	–	–
EFDSEHNLTSNEGHSLKNLEHRLN [RASAL3]	4.82 ± 0.49	4.67 ± 0.49	–	–

Sequence	protein stability index [1]	protein stability index [2]	protein stability index (treatment: DMSO, c terminus: native)	protein stability index (treatment: MLN4924 1 uM, 8 h, c terminus: native)
EFEEATGEAGWGAGEGRLGHKRKQ [FOXJ1]	5.26 ± 0.39	5.19 ± 0.5	–	–
EFQERARKRIRTYLKSCRRMKKNG [NOL4L]	3.31 ± 0.19	3.19 ± 0.23	–	–
EGAIVMARGRHVGSSETNLLQHLL [PYCR3]	3.25 ± 0.78	3.18 ± 0.08	–	–
EGARAAGLGELGAALLQLVRRLQA [ESRRA]	3.04 ± 0.44	3 ± 0.18	–	–
EGGDESDLSSESSIKKKFLKRKGK [EHMT1]	5.54 ± 0.22	5.34 ± 0.56	–	–
EGHSIVGFAMYYFTYDPWIGKLLY [SAT1]	3.07 ± 0.16	3.02 ± 0.99	–	–
EGKAPIISGVTKAISSPTVSRLTD [TPPP]	4.52 ± 0.2	4.51 ± 0.36	–	–
EGPALVEIDRSVENTLLNSQMVST [MIA2]	4.54 ± 0.26	4.63 ± 0.22	–	–
EGSRKSSRVKGSAPEIDPSSDGSN [KMT2E]	5.36 ± 0.17	5.21 ± 0.18	–	–
EHKSLESLADGGSASPIKDQPVMA [FANCE]	5.43 ± 0.27	5.32 ± 0.2	–	–
EIAQYLLEKGADVNRKSVKGNTAL [FEM1C]	2.58 ± 0.35	2.64 ± 0.3	–	–
EIDTPDKFGRTCLHAAAAGGNVEC [ANKRD44]	4.24 ± 0.16	4.37 ± 0.23	–	–
EILGCPLPDPNNYYHRRNEMTTTD [CPXM2]	3.24 ± 0.21	3.54 ± 0.56	–	–
EILLHPWFESVLEPGYIDSEIGTS [TRIB1]	2.44 ± 0.29	2.56 ± 0.43	–	–
EKKKGKAKKKRLTKADIGTPSNFQ [WASL]	4.62 ± 0.099	4.63 ± 0.062	–	–
EKKRKEEEERRRREEEERERLQKE [ACBD3]	5.45 ± 0.36	5.49 ± 0.25	–	–
EKLITWLNKELNENQLVRKQDVLG [SASS6]	2.12 ± 0.44	3.1 ± 0.26	–	–
EKSLDQLKSISAEEILTLFCGAPP [PHTF1]	3.02 ± 0.21	3.3 ± 0.15	–	–
EKVNEGKYRSYEEFKADAQLLLHN [ZMYND11]	4.1 ± 0.13	3.79 ± 0.28	–	–
ELDELQAAFEEFDTDRDGYISHRE [CABP4]	5.26 ± 0.25	5.32 ± 0.15	–	–
ELIFSARVLDGKEAKAVGLISHVL [AUH]	2.58 ± 0.92	2.18 ± 0.25	–	–
ELLVAHAYTRYLGDLSGGQVLKKI [HMOX1]	2.23 ± 0.86	2.32 ± 0.3	–	–

Sequence	protein stability index [1]	protein stability index [2]	protein stability index (treatment: DMSO, c terminus: native)	protein stability index (treatment: MLN4924 1 uM, 8 h, c terminus: native)
ELSGAPRCHTVPCAGSTALQEPGE [PXN]	4.9 ± 0.28	5.05 ± 0.32	–	–
EMKLQKNFLTQRENTIAGANHTHT [C10orf62]	3.78 ± 0.44	3.65 ± 0.4	–	–
ENLIRERSQQQEPLLCPSYQSYFK [KRT33B]	3.39 ± 0.26	3.59 ± 0.59	–	–
EQKVLSRLVESLSTQIRALTEQQE [RASAL3]	2.65 ± 0.046	2.76 ± 0.19	–	–
EQQTMDNLEKQLICPICLEMFTKP [TRIM55]	3.77 ± 0.38	4.14 ± 0.38	–	–
ERIQELEDLLAKEKDNSRRMLTDK [LMNB1]	4.85 ± 0.29	4.91 ± 0.34	–	–
ERKNAEMYKLSSEQFHEAASKMES [CHCHD6]	4.83 ± 0.27	5.08 ± 0.16	–	–
ERLTAPEILLHPWFESVLEPGYID [TRIB1]	3.26 ± 0.21	3.3 ± 0.3	–	–
ERPQDRDTPVQNKRRRSVTPPEEQ [CDC25B]	5.34 ± 0.18	5.32 ± 0.23	–	–
ERQGNGQQAMSLAILRVIRLVRVF [KCNA3]	2.3 ± 0.13	2.56 ± 0.59	–	–
ERSLVLDRLASNVAKRKSSMPQKF [IKZF1]	3.6 ± 0.23	3.84 ± 0.29	–	–
ESHATLTLAQAHFNNGEYAEAEAL [TTC32]	5.19 ± 0.2	5.04 ± 0.15	–	–
ESLPHRLSCLGQQQQEPPLAMGTV [PLAGL1]	3.92 ± 0.17	4.04 ± 0.26	–	–
ESPSFLSLRKGASLSNGQGSRVLH [NCK2]	3.83 ± 0.27	3.92 ± 0.16	–	–
ESRACLERIQELEDLLAKEKDNSR [LMNB1]	5.04 ± 0.46	5.15 ± 0.27	–	–
ESSDLQMDVMPGEGDLPQMEVGSG [EID1]	5.42 ± 0.15	5.21 ± 0.3	–	–
ESYTKMCDPGMTAFEPEALGNLVE [CAMK2A]	4.1 ± 0.31	4.16 ± 0.33	–	–
ETELALVKESGERKVTDSISKSLE [DLC1]	5.56 ± 0.35	5.13 ± 0.44	–	–
ETELAMRQSVENDIHGLRKVIDDT [KRT18]	5.17 ± 0.28	5.2 ± 0.18	–	–
ETFAFQAEIAQLMSLIINTFYSNK [HSP90AB1]	2.84 ± 0.66	2.63 ± 0.54	–	–
ETVSPLPSSMDLLIQDSPDSSTSP [NANOGP8]	5.45 ± 0.37	5.45 ± 0.25	–	–
